From article PMC11827635 (Science Advances, 2025) come the findings set out here.

B1: αE-catenin α(CA), as it stands in the tetramer and pentamer (natural protein, mouse, UniProt P26231 1-906, looked up)
chain: MTAVHAGNINFKWDPKSLEIRTLAVERLLEPLVTQVTTLVNTNSKGPSNKKRGRSKKAHVLAASVEQATENFLEKGDKIAKESQFLKEELVVAVEDVRKQGDLMKSAAGEFADDPCSSVKRGNMVRAARALLSAVTRLLILADMADVYKLLVQLKVVEDGILKLRNAGNEQDLGIQYKALKPEVDKLNIMAAKRQQELKDVGNRDQMAAARGILQKNVPILYTASQACLQHPDVAAYKANRDLIYKQLQQAVTGISNAAQATASDDAAQHQGGSGGELAYALNNFDKQIIVDPLSFSEERFRPSLEERLESIISGAALGADSSCTEDDRRERIVAECNAVRQALQDLLSEYMGNAGRKERSDALNSAIDKMTKKTRDLRRQLRKAVMDHVSDSFLETNVPLLVLIEAAKNGNEKEVKEYAQVFREHANKLIEVANLACSISNNEEGVKLVRMSASQLEALCPQVINAALALAAKPQSKLAQENMDLFKEQWEKQVRVLTDAVDDITSIDDFLAVSENHILEDVNKCVIALQEKDVDGLDRTAGAIRGRAAEVIHVVTSEMDNYEPGVYTEKVLEATKLLSNTVMPRFTEQVEAAVEALSSDPAQPMDENEFIDASRLVYDGIRDIRKAVLMIRTPEELDDSDFETEDFDVRSRTSVQTEDDQLIAGQSARAIMAQLPQEQKAKIAEQVASFQEEKSKLDAEVSKWDDSGNDIIVLAKQMCMIMMEMTDFTRGKGPLKNTSDVISAAKKIAEAGSRMDKLGRTIADHCPDSACKQDLLAYLQRIALYCHQLNICSKVKAEVQNLGGELVVSGVDSAMSLIQAAKNLMNAVVQTVKASYVASTKYQKSQGMASLNLPAVSWKMKAPEKKPLVKREKQDETQTKIKRASQKKHVNPVQALSEFKAMDSI
notes: αE-catenin, α(CA); residues 690 to 903 are modelled in PDB 9DVA; single chain of m5, m6, m11 and m18, written for the pairs that touch; also called αE-catenin ABD (in the structure); ABD1; source: FreeStyle 293-F, co-expressed and purified within the cadherin-catenin–vinculin complex
B2: afadin coiled-coil region (afadin-CC) (domain or fragment, mouse, UniProt Q9QZQ1-3 1393-1602, looked up)
chain: ANQAGPQSAQVAAAEWKKREEHQRWYEKEKARLEEERERKRREQERKLGQMRSQTLNPASFSPLATQAKPEKPSTLQRPQETVIRELQPQQQPRTIERKDLQYITISKEELSSGDSLSPDPWKRDAREKLEKQQQMHIVDMLSKEIHELQNKVDRTAEESDRLRKLMLEWQFQKRLQESKQKDEDDDEEEDDDVDTMLIMQRLEAERRAR
notes: afadin, coiled-coil region (afadin-CC); residues 1508 to 1578 are modelled in PDB 9DVA; also called afadin-CC domain; source: FreeStyle 293-F, purified (anti-GFP beads, TEV, MonoQ, Superdex 200); not shown: GFP, N-terminal, cleaved

Data set [1] concerns the molecule itself. Kind of data set: cryo-EM structure; 2.5 μM tetramer premixed with 5 μM afadin-CC, added to 0.6 μM F-actin on the grid; straight filaments 3.1 Å, curved filaments decorated along one strand 4.1 Å.
Data set [2] addresses B1. The description is as above. The settings on record: both partners purified.

For the molecule B1, the binding result in data set [1] was “binds”.

As for B2, the binding result in data set [2] is reported as “binds”.
